# Assay results from IntAct's records for PubMed 26167883.
# Molecular target: mcm2_human MCM2 (UniProt P49736)
substance,measurement,value
Histone H3.1 (Homo sapiens) (from UniProt P68431) R64A;K65A,effect of a mutation on the interaction,decreasing interaction strength
